The record followed here is patent US20230406950A1 (LYVGEN BIOPHARMA, published 2023).

For assay [1], the target named is T1, human CD40 expressed on CHO cells (human, UniProt P25942 21-277).
T1 construct: whole, on cells
Put plainly: FACS on CHO cells expressing human CD40 (MFI). On the procedure:
(§1) Anti-CD40/CD137 bi-specific antibodies were analyzed by FACS for their binding properties to human CD40 and/or human CD137 expressed on CHO cells. Briefly, cultured cells were harvested, counted and cell viability was evaluated using the Trypan Blue exclusion method. Viable cells were then adjusted to 2×10⁶ cells per mL in PBS containing 2% BSA. 100 μL of this cell suspension were further aliquoted per well into a V-bottom 96-well plate. […] After incubation for 2 hours at 4° C., cells were centrifuged (3 min, 1000×g), washed with 250 μL/well BSA-containing FACS Stain Buffer, resuspended and incubated for an additional 1 hour at 4° C. with 100 μL/well fluorochrome-conjugated anti-IgG antibody for detection of the bisepecific antibody. Cells were then washed with 250 μL/well BSA-containing FACS Stain Buffer, resuspended in 100 μL/well FACS Stain Buffer, acquired and analyzed using a FACS machine. Binding of the bispecific antibodies to human CD40 or human CD137 expressing CHO cells were evaluated and the mean fluorescence intensity is plotted in histograms or dot plots.

The target in assay [2] is T2, human CD137 expressed on cells (human, UniProt Q07011 24-255).
T2 construct: whole, on cells; also called 4-1BB; TNFRSF9
The assay can be described thus: FACS on CHO cells expressing human CD137 (MFI). On the procedure:
as §1

Assay [3] addresses T2, human CD137 expressed on cells. The assay can be described thus: FACS on CHO cells expressing human CD137 (MFI). On the procedure: as §1, with “Anti-GITR/CD137” for “Anti-CD40/CD137”, “GITR” for “CD40”, “1000× g),” for “1000×g),”
The source holds these as a separate data set.

Like-named read-outs stand apart in the source and are kept apart here.

T2 sequence (Q07011 24-255): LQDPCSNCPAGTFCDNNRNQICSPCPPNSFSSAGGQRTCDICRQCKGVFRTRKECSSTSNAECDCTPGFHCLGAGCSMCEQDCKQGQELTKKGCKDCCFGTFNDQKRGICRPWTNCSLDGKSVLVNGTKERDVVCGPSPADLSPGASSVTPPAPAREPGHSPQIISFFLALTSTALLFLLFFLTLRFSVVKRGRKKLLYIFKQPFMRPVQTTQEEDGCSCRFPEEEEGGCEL
T1 sequence (P25942 21-277): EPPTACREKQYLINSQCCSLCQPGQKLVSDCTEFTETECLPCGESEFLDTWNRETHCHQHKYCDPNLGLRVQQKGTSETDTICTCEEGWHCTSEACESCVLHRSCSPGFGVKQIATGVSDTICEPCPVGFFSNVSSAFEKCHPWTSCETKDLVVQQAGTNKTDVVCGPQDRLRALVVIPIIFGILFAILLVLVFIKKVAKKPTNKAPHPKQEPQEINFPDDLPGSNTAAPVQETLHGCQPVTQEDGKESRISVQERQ

B1: Ly745 (bispecific antibody, human IgG1, kappa)
heavy: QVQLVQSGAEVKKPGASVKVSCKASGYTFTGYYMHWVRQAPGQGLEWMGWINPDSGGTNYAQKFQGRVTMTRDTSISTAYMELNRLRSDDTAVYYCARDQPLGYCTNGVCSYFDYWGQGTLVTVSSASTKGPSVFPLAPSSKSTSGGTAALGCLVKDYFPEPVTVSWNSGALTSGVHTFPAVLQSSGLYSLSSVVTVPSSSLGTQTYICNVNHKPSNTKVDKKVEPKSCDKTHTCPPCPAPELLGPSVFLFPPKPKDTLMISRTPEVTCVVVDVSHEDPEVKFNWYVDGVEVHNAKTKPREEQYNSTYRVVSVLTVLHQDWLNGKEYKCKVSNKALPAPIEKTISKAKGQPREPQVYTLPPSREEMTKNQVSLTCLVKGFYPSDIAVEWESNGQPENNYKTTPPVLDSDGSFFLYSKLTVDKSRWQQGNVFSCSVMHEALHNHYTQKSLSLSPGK
light: DIQMTQSPSSVSASVGDRVTITCRASQGIYSWLAWYQQKPGKAPNLLIYTASTLQSGVPSRFSGSGSGTDFTLTISSLQPEDFATYYCQQANIFPLTFGGGTKVEIKRTVAAPSVFIFPPSDEQLKSGTASVVCLLNNFYPREAKVQWKVDNALQSGNSQESVTEQDSKDSTYSLSSTLTLSKADYEKHKVYACEVTHQGLSSPVTKSFNRGECGGGGSGGGGSGGGGSGGGGSQVQLVQSGAEVKKPGASVKVSCKASGYTFAGFEMHWVRQAPGQGLEWMGAIDPKTGGTDYNQKFKDRVTMTRDTSISTAYMELSRLRSDDTAVYYCARDLGYFDVWGQGTLVTVSSGGGGSGGGGSGGGGSGGGGSDIQMTQSPSSLSASVGDRVTITCRASQDIRSNLNWYQQKPGGAVKLLIYYTSRLHSGVPSRFSGSGSGTDYTLTISSLQPEDFATYFCQQSEKLPRTFGGGTKVEIR
notes: Anti-CD40/CD137: Ly253-derived heavy chain; Ly253 light chain fused to Ly1630 scFv (VH-VL)
In general, EC50 (read off the curve) refers to the concentration at which the effect is half-maximal. Read a low EC50 (read off the curve) as higher potency in that assay. In the case of B1, in assay [1], the binding result is reported as “binds”. The “EC50 (read off the curve)” value in assay [2] was roughly 0.2 µg/mL.

B2: Ly752 (bispecific antibody, human IgG1, kappa)
heavy: QVQLQESGPGLVKPSETLSLTCTVSGFSLTSYNVHWIRQPPGKGLEWIGVIWSGVRTDYNSVLKSRVTISVDTSKNQFSLKLSSVTAADTAVYYCARGTYDANYHDVMDAWGQGTMVTVSSASTKGPSVFPLAPSSKSTSGGTAALGCLVKDYFPEPVTVSWNSGALTSGVHTFPAVLQSSGLYSLSSVVTVPSSSLGTQTYICNVNHKPSNTKVDKKVEPKSCDKTHTCPPCPAPELLGPSVFLFPPKPKDTLMISRTPEVTCVVVDVSHEDPEVKFNWYVDGVEVHNAKTKPREEQYNSTYRVVSVLTVLHQDWLNGKEYKCKVSNKALPAPIEKTISKAKGQPREPQVYTLPPSREEMTKNQVSLTCLVKGFYPSDIAVEWESNGQPENNYKTTPPVLDSDGSFFLYSKLTVDKSRWQQGNVFSCSVMHEALHNHYTQKSLSLSPGK
light: DTVLTQSPATLSLSPGERATLSCRASKSVRTGMHWYQQKPGQAPRLLVYGASNLESGIPARFSGSGSGTDFTLTISSLEPEDFATYFCHQSWNHFTFGQGTKLEIKRTVAAPSVFIFPPSDEQLKSGTASVVCLLNNFYPREAKVQWKVDNALQSGNSQESVTEQDSKDSTYSLSSTLTLSKADYEKHKVYACEVTHQGLSSPVTKSFNRGECGGGGSGGGGSGGGGSGGGGSDIQMTQSPSSLSASVGDRVTITCRASQDIRSNLNWYQQKPGGAVKLLIYYTSRLHSGVPSRFSGSGSGTDYTLTISSLQPEDFATYFCQQSEKLPRTFGGGTKVEIRGGGGSGGGGSGGGGSGGGGSQVQLVQSGAEVKKPGASVKVSCKASGYTFAGFEMHWVRQAPGQGLEWMGAIDPKTGGTDYNQKFKDRVTMTRDTSISTAYMELSRLRSDDTAVYYCARDLGYFDVWGQGTLVTVSS
notes: Anti-GITR/CD137: TM677-derived heavy chain; TM677 light chain fused to Ly1630 scFv (VL-VH)
For B2, the “EC50 (read off the curve)” value in assay [3] is roughly 0.4 µg/mL.

B3: Ly753 (bispecific antibody, human IgG1, kappa)
heavy: QVQLQESGPGLVKPSETLSLTCTVSGFSLTSYNVHWIRQPPGKGLEWIGVIWSGVRTDYNSVLKSRVTISVDTSKNQFSLKLSSVTAADTAVYYCARGTYDANYHDVMDAWGQGTMVTVSSASTKGPSVFPLAPSSKSTSGGTAALGCLVKDYFPEPVTVSWNSGALTSGVHTFPAVLQSSGLYSLSSVVTVPSSSLGTQTYICNVNHKPSNTKVDKKVEPKSCDKTHTCPPCPAPELLGPSVFLFPPKPKDTLMISRTPEVTCVVVDVSHEDPEVKFNWYVDGVEVHNAKTKPREEQYNSTYRVVSVLTVLHQDWLNGKEYKCKVSNKALPAPIEKTISKAKGQPREPQVYTLPPSREEMTKNQVSLTCLVKGFYPSDIAVEWESNGQPENNYKTTPPVLDSDGSFFLYSKLTVDKSRWQQGNVFSCSVMHEALHNHYTQKSLSLSPGK
light: DTVLTQSPATLSLSPGERATLSCRASKSVRTGMHWYQQKPGQAPRLLVYGASNLESGIPARFSGSGSGTDFTLTISSLEPEDFATYFCHQSWNHFTFGQGTKLEIKRTVAAPSVFIFPPSDEQLKSGTASVVCLLNNFYPREAKVQWKVDNALQSGNSQESVTEQDSKDSTYSLSSTLTLSKADYEKHKVYACEVTHQGLSSPVTKSFNRGECGGGGSGGGGSGGGGSGGGGSQVQLVQSGAEVKKPGASVKVSCKASGYTFAGFEMHWVRQAPGQGLEWMGAIDPKTGGTDYNQKFKDRVTMTRDTSISTAYMELSRLRSDDTAVYYCARDLGYFDVWGQGTLVTVSSGGGGSGGGGSGGGGSGGGGSDIQMTQSPSSLSASVGDRVTITCRASQDIRSNLNWYQQKPGGAVKLLIYYTSRLHSGVPSRFSGSGSGTDYTLTISSLQPEDFATYFCQQSEKLPRTFGGGTKVEIR
notes: Anti-GITR/CD137: TM677-derived heavy chain; TM677 light chain fused to Ly1630 scFv (VH-VL)
B3: the “EC50 (read off the curve)” value in assay [3] was roughly 0.7 µg/mL.

B4: Ly754 (bispecific antibody, human IgG1, kappa)
heavy: QVQLVQSGAEVKKPGASVKVSCKASGYTFAGFEMHWVRQAPGQGLEWMGAIDPKTGGTDYNQKFKDRVTMTRDTSISTAYMELSRLRSDDTAVYYCARDLGYFDVWGQGTLVTVSSASTKGPSVFPLAPSSKSTSGGTAALGCLVKDYFPEPVTVSWNSGALTSGVHTFPAVLQSSGLYSLSSVVTVPSSSLGTQTYICNVNHKPSNTKVDKKVEPKSCDKTHTCPPCPAPELLGPSVFLFPPKPKDTLMISRTPEVTCVVVDVSHEDPEVKFNWYVDGVEVHNAKTKPREEQYNSTYRVVSVLTVLHQDWLNGKEYKCKVSNKALPAPIEKTISKAKGQPREPQVYTLPPSREEMTKNQVSLTCLVKGFYPSDIAVEWESNGQPENNYKTTPPVLDSDGSFFLYSKLTVDKSRWQQGNVFSCSVMHEALHNHYTQKSLSLSPGGGGGSGGGGSGGGGSGGGGSEIVLTQSPATLSLSPGERATLSCRASKSVRTGMHWYQQKPGQAPRLLIYGASNLESGIPARFSGSGSGTDFTLTISSLEPEDFAVYYCQQSWNHFTFGQGTKLEIKGGGGSGGGGSGGGGSGGGGSQVQLQESGPGLVKPSETLSLTCTVSGFSLTSYNVHWIRQPPGKGLEWIGVIWSGVRTDYNSVLKPRVTISVDTSKNQFSLKLSSVTAADTAVYYCARGTYDDNYHDVMDAWGQGTLVTVSS
light: DIQMTQSPSSLSASVGDRVTITCRASQDIRSNLNWYQQKPGGAVKLLIYYTSRLHSGVPSRFSGSGSGTDYTLTISSLQPEDFATYFCQQSEKLPRTFGGGTKVEIRRTVAAPSVFIFPPSDEQLKSGTASVVCLLNNFYPREAKVQWKVDNALQSGNSQESVTEQDSKDSTYSLSSTLTLSKADYEKHKVYACEVTHQGLSSPVTKSFNRGEC
notes: Anti-GITR/CD137: Ly1630 heavy chain fused to TM685 scFv (VL-VH); Ly1630 light chain
With B4, the “EC50 (read off the curve)” value in assay [3] is roughly 0.2 µg/mL.

B5: Ly744 (bispecific antibody, human IgG1, kappa)
heavy: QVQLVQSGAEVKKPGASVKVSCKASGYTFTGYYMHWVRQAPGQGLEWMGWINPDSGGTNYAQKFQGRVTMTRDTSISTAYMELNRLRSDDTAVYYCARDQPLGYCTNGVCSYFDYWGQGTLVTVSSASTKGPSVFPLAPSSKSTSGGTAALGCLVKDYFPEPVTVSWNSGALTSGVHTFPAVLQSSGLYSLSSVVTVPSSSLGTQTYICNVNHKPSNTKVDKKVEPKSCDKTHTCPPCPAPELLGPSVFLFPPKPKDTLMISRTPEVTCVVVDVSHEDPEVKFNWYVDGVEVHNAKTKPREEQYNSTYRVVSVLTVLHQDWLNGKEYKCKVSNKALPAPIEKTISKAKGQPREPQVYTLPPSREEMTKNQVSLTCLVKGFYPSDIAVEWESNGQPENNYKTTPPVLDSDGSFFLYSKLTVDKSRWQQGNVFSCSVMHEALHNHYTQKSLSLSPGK
light: DIQMTQSPSSVSASVGDRVTITCRASQGIYSWLAWYQQKPGKAPNLLIYTASTLQSGVPSRFSGSGSGTDFTLTISSLQPEDFATYYCQQANIFPLTFGGGTKVEIKRTVAAPSVFIFPPSDEQLKSGTASVVCLLNNFYPREAKVQWKVDNALQSGNSQESVTEQDSKDSTYSLSSTLTLSKADYEKHKVYACEVTHQGLSSPVTKSFNRGECGGGGSGGGGSGGGGSGGGGSDIQMTQSPSSLSASVGDRVTITCRASQDIRSNLNWYQQKPGGAVKLLIYYTSRLHSGVPSRFSGSGSGTDYTLTISSLQPEDFATYFCQQSEKLPRTFGGGTKVEIRGGGGSGGGGSGGGGSGGGGSQVQLVQSGAEVKKPGASVKVSCKASGYTFAGFEMHWVRQAPGQGLEWMGAIDPKTGGTDYNQKFKDRVTMTRDTSISTAYMELSRLRSDDTAVYYCARDLGYFDVWGQGTLVTVSS
notes: Anti-CD40/CD137: Ly253-derived heavy chain; Ly253 light chain fused to Ly1630 scFv (VL-VH)
For the molecule B5, the binding result in assay [1] is recorded as “binds”. Further, the “EC50 (read off the curve)” value in assay [2] is roughly 0.1 µg/mL.

B6: Ly743 (bispecific antibody, human IgG1, kappa)
heavy: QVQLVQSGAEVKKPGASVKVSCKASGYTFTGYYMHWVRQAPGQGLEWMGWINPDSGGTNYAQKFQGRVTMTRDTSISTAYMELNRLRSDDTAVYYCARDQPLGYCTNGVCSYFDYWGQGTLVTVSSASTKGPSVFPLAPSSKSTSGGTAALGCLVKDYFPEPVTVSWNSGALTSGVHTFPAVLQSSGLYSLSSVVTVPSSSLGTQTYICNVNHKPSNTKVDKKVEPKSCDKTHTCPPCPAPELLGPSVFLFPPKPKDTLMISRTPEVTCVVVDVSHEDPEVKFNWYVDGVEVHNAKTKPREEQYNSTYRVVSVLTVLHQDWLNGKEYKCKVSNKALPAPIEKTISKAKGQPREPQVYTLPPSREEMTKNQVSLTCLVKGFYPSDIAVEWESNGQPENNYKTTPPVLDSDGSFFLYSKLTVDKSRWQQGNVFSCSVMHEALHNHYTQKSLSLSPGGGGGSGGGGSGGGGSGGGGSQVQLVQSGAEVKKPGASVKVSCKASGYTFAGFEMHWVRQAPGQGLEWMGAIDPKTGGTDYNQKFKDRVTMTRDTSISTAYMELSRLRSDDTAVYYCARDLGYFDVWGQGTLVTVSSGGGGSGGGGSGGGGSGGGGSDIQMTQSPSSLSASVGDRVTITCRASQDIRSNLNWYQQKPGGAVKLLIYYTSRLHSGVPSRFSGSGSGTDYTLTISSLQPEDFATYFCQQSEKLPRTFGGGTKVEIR
light: DIQMTQSPSSVSASVGDRVTITCRASQGIYSWLAWYQQKPGKAPNLLIYTASTLQSGVPSRFSGSGSGTDFTLTISSLQPEDFATYYCQQANIFPLTFGGGTKVEIKRTVAAPSVFIFPPSDEQLKSGTASVVCLLNNFYPREAKVQWKVDNALQSGNSQESVTEQDSKDSTYSLSSTLTLSKADYEKHKVYACEVTHQGLSSPVTKSFNRGEC
notes: Anti-CD40/CD137: Ly253-derived heavy chain fused to Ly1630 scFv (VH-VL); Ly253 light chain
Consider B6, for which the binding result in assay [1] is recorded as “binds”. For the same molecule, the “EC50 (read off the curve)” value in assay [2] was roughly 0.1 µg/mL.
